Data reported in patent US20230087125A1 (Memorial Sloan Kettering, published 2023).

T1: human CD127 (IL-7R), as used in the scFv binding experiments (human, UniProt P16871 21-239, limits assumed)
T1 construct: also called IL-7Ralpha; interleukin-7 receptor subunit alpha
T1 sequence: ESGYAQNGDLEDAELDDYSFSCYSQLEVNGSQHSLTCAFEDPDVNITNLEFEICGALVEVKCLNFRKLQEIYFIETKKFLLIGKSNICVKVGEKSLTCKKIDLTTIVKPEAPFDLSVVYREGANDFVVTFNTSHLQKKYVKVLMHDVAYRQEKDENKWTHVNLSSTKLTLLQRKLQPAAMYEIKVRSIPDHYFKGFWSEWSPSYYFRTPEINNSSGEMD

B1: scFv703-Fc (VH-VL) (Fc fusion)
scFv: AVQLVESGGGLVQPGGSLKITCAASGFTFTNAAMYWVRQAPGKGLEWVARIRTKANNYATYYADSVKGRFTISRDDSKSTVYLQMDSVKTEDTATYYCIVVVLTTTRDYFDYWGQGVLVTVSSGGGGSGGGGSGGGGSDIVLTQSPSSLPVTPGEPASISCRSSQSLLTVKGITSLYWFLQKPGQSPKLLIYRMSNRDSGVPDRFSGSGSETDFTLKISRVEAEDVGTYYCAQFLEYPHTFGAGTKLELK
notes: The Fc is not described; also called scFv703HL; VH-VL scFv of OSE703; not shown: The Fc part implied by the name scFv703-Fc, and any hinge or linker to it
B2: scFv703-Fc (VL-VH) (Fc fusion)
scFv: DIVLTQSPSSLPVTPGEPASISCRSSQSLLTVKGITSLYWFLQKPGQSPKLLIYRMSNRDSGVPDRFSGSGSETDFTLKISRVEAEDVGTYYCAQFLEYPHTFGAGTKLELKGGGGSGGGGSGGGGSAVQLVESGGGLVQPGGSLKITCAASGFTFTNAAMYWVRQAPGKGLEWVARIRTKANNYATYYADSVKGRFTISRDDSKSTVYLQMDSVKTEDTATYYCIVVVLTTTRDYFDYWGQGVLVTVSS
notes: The Fc is not described; also called scFv703LH; VL-VH scFv of OSE703; not shown: The Fc part implied by the name scFv703-Fc, and any hinge or linker to it

Biological target: T1, human CD127 (IL-7R), as used in the …
Assay: scFv binding experiment, given as ED50; method and format not stated (FIG. 1A)

Binder | EC50 [µg/mL]
B1 | 3.32
B2 | 0.539
